What is called Kd is the constant that tells how readily two partners part at equilibrium.

Assay [1] has as its target VEGF-A165 (produced from CHO cell) (UniProt P15692). Nature of the assay: SPR, BIAcore 3000, VEGF-A immobilized on CM5 chip. Background: In SPR one partner is held on a chip, and binding of the other changes the refractive index at the surface.
The target of assay [2] is T1, TNFR2-Fc (also known as Etarnercept, U.S. Pat. No. 5,447,851) (human, UniProt P20333 23-257).
T1 construct: range 23-257; The ELISAs and photograph assays name TNFR2-Fc; the SPR and MTT assays name ENBREL®; also called TNFR2-Fc (1-257); ENBREL®; not shown: Fc of human IgG
T1 sequence (looked up): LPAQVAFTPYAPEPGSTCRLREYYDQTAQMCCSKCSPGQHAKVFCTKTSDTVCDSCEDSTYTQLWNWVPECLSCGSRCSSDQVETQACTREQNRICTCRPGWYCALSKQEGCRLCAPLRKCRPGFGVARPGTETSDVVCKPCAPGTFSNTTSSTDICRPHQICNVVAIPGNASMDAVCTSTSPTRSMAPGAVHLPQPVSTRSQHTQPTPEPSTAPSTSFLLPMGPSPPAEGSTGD
Nature of the assay: ELISA, VEGF-A coated on the plate, Fc fusion protein 0.01-10 nM, detection with anti-human Fc-HRP, OD 415. The method, then: After washing the plate 3 times with each 400 μl of PBS, a blocking was performed with the blocking solution (1% BSA in 100 μl PBS) at 37° C. for 2 hour. […] After washing the plate 3 times with each 400 μl of PBS, 50 μl of 3,3′,5,5′-tetramethylbenzidine (TMB) solution (Sigma-Aldrich T0440) was added into the plate, and were incubated at room temperature for 10 min.
A general note: In an ELISA, binding on a coated surface is turned into a signal by an enzyme label.

As for VEGF-Trap (Fc fusion), the Kd in assay [1] worked out at 1.35 pM.

B1: VEGF-A165 (produced from CHO cell) (ligand, UniProt P15692-4 27-191, looked up)
chain: APMAEGGGQNHHEVVKFMDVYQRSYCHPIETLVDIFQEYPDEIEYIFKPSCVPLMRCGGCCNDEGLECVPTEESNITMQIMRIKPHQGQHIGEMSFLQHNKCECRPKKDRARQENPCGPCSERRKHLFVQDPQTCKCSCKNTDSRCKARQLELNERTCRCDKPRR
As to B1, the binding result in assay [2] was “no binding (tested: 10 nM)”.

The values above are taken from patent publication US20150183864A1 (KOREA ADVANCED INSTITUTE OF SCIENCE AND TECHNOLOGY KAIST, published 2015).
